Test results: patent US20260266848A1, “COMPOSITIONS AND METHODS FOR DIAGNOSING AND TREATING DYSTONIA” (Duke University, priority 2023, published 2026)

B1: Uba3 (protein, UniProt Q8C878 2-462, looked up)
NEDD8-activating enzyme E1 …: ADGEEPEKKRRRIEELLAEKMAVDGGCGDTGDWEGRWNHVKKFLERSGPFTHPDFEPSTESLQFLLDTCKVLVIGAGGLGCELLKNLALSGFRQIHVIDMDTIDVSNLNRQFLFRPKDVGRPKAEVAAEFLNDRVPNCNVVPHFNKIQDFNDTFYRQFHIIVCGLDSIIARRWINGMLISLLNYEDGVLDPSSIVPLIDGGTEGFKGNARVILPGMTACIECTLELYPPQVNFPMCTIASMPRLPEHCIEYVRMLQWPKEQPFGDGVPLDGDDPEHIQWIFQKSIERASQYNIRGVTYRLTQGVVKRIIPAVASTNAVIAAVCATEVFKIATSAYIPLNNYLVFNDVDGLYTYTFEAERKENCPACSQLPQNIQFSPSAKLQEVLDYLTNSASLQMKSPAITATLEGKNRTLYLQSVTSIEERTRPNLSKTLKELGLVDGQELAVADVTTPQTVLFKLHFT
B2: Scarb2 (protein, UniProt Q14108 1-478, looked up)
Lysosome membrane protein 2: MGRCCFYTAGTLSLLLLVTSVTLLVARVFQKAVDQSIEKKIVLRNGTEAFDSWEKPPLPVYTQFYFFNVTNPEEILRGETPRVEEVGPYTYRELRNKANIQFGDNGTTISAVSNKAYVFERDQSVGDPKIDLIRTLNIPVLTVIEWSQVHFLREIIEAMLKAYQQKLFVTHTVDELLWGYKDEILSLIHVFRPDISPYFGLFYEKNGTNDGDYVFLTGEDSYLNFTKIVEWNGKTSLDWWITDKCNMINGTDGDSFHPLITKDEVLYVFPSDFCRSVYITFSDYESVQGLPAFRYKVPAEILANTSDNAGFCIPEGNCLGSGVLNVSICKNGAPIIMSFPHFYQADERFVSAIEGMHPNQEDHETFVDINPLTGIILKAAKRFQINIYVKKLDDFVETGDIRTMVFPVMYLNESVHIDKETASRLKSMINTTLIITNIPYIIMALGVFFGLVFTWLACKGQGSMDEGTADERAPLIRT
B3: Itgb3 (protein, UniProt O54890 26-787, looked up)
Integrin beta-3: ESNICTTRGVNSCQQCLAVSPVCAWCSDETLSQGSPRCNLKENLLKDNCAPESIEFPVSEAQILEARPLSSKGSGSSAQITQVSPQRIALRLRPDDSKIFSLQVRQVEDYPVDIYYLMDLSFSMKDDLSSIQTLGTKLASQMRKLTSNLRIGFGAFVDKPVSPYMYISPPQAIKNPCYNMKNACLPMFGYKHVLTLTDQVSRFNEEVKKQSVSRNRDAPEGGFDAIMQATVCDEKIGWRNDASHLLVFTTDAKTHIALDGRLAGIVLPNDGHCHIGTDNHYSASTTMDYPSLGLMTEKLSQKNINLIFAVTENVVSLYQNYSELIPGTTVGVLSDDSSNVLQLIVDAYGKIRSKVELEVRDLPEELSLSFNATCLNNEVIPGLKSCVGLKIGDTVSFSIEAKVRGCPQEKEQSFTIKPVGFKDSLTVQVTFDCDCACQAFAQPSSPRCNNGNGTFECGVCRCDQGWLGSMCECSEEDYRPSQQEECSPKEGQPICSQRGECLCGQCVCHSSDFGKITGKYCECDDFSCVRYKGEMCSGHGQCNCGDCVCDSDWTGYYCNCTTRTDTCMSTNGLLCSGRGNCECGSCVCVQPGSYGDTCEKCPTCPDACSFKKECVECKKFNRGTLHEENTCSRYCRDDIEQVKELTDTGKNAVNCTYKNEDDCVVRFQYYEDTSGRAVLYVVEEPECPKGPDILVVLLSVMGAILLIGLATLLIWKLLITIHDRKEFAKFEEERARAKWDTANNPLYKEATSTFTNITYRGT
B4: Esyt1 (protein, UniProt Q3U7R1 1-1092, looked up)
Extended synaptotagmin-1: MEHSPEEGASPEPSGQPPATDSTRDGGSGVPPAGPGAASEALAVLTSFGRRLLVLVPVYLAGAAGLSVGFVLFGLALYLGWRRVRDGKERSLRAARQLLDDEERITAETLYMSHRELPAWVSFPDVEKAEWLNKIVAQVWPFLGQYMEKLLAETVAPAVRGANPHLQTFTFTRVELGEKPLRIIGVKVHPSQRKDQILLDLNVSYVGDVQIDVEVKKYFCKAGVKGMQLHGVLRVILEPLTGDLPIVGAVSMFFIKRPTLDINWTGMTNLLDIPGLSSLSDTMIMDSIAAFLVLPNRLLVPLVPDLQDVAQLRSPLPRGIIRIHLLAARGLSSKDKYVKGLIEGKSDPYALVRVGTQTFCSRVIDEELNPHWGETYEVIVHEVPGQEIEVEVFDKDPDKDDFLGRMKLDVGKVLQAGVLDNWYPLQGGQGQVHLRLEWLSLLPDAEKLDQVLQWNRGITSRPEPPSAAILVVYLDRAQDLPLKKGNKEPNPMVQLSVQDVTRESKATYSTNSPVWEEAFRFFLQDPRSQELDVQVKDDSRALTLGALTLPLARLLTASELTLDQWFQLSSSGPNSRLYMKLVMRILYLDYSEIRFPTVPGAQDWDRESLETGSSVDAPPRPYHTTPNSHFGTENVLRIHVLEAQDLIAKDRFLGGLVKGKSDPYVKLKVAGKSFRTHVVREDLNPRWNEVFEVIVTSIPGQELEIEVFDKDLDKDDFLGRYKVSLTTVLNSGFLDEWLTLEDVPSGRLHLRLERLTPRPTAAELEEVLQVNSLIQTQKSSELAAALLSVFLERAEDLPLRKGTKPPSPYATITVGETSHKTKTVSQSSAPVWEESASFLIRKPHAESLELQVRGEGTGTLGSVSLPLSELLQEDQLCLDHWFALSGQGQVLMRAQLGILVSQHSGVEAHSHSYSHSHSSSSLNDEPEALGGPTHPASPVLEVRHRLTHGDSPSEAPVGPLGQVKLTVWYHSDEQKLISIIHSCRALRQNGRDLPDPYVSVLLLPDKNRSTKRKTPQKKRTLNPEFNERFEWDLPLDGTLRRKLDVSVKSNSSFMSRERELLGKVQLDLAEIDLSQGAAQWYDLMDDRDKGGS
B5: Cryab (protein, UniProt P23927 1-175, looked up)
Alpha-crystallin B chain: MDIAIHHPWIRRPFFPFHSPSRLFDQFFGEHLLESDLFSTATSLSPFYLRPPSFLRAPSWIDTGLSEMRLEKDRFSVNLDVKHFSPEELKVKVLGDVIEVHGKHEERQDEHGFISREFHRKYRIPADVDPLTITSSLSSDGVLTVNGPRKQVSGPERTIPITREEKPAVAAAPKK
B6: Ipo7 (protein, UniProt Q9EPL8 1-1038, looked up)
Importin-7: MDPNTIIEALRGTMDPALREAAERQLNEAHKSLNFVSTLLQITMSEQLDLPVRQAGVIYLKNMITQYWPDREATPGDIAPYTIPEEDRHCIRENIVEAIIHSPELIRVQLTTCIHHIIKHDYPSRWTAIVDKIGFYLQSDNSACWLGILLCLYQLVKNYEYKKPEERSPLVAAMQHFLPVLKDRFIQLLSDQSDQSVLIQKQIFKIFYALVQYTLPLELINQQNLTEWVEILKTVVNRDVPNETLQVEEDDRPELPWWKCKKWALHILARLFERYGSPGNVSKEYNEFAEVFLKAFAVGVQQVLLKVLYQYKEKQYMAPRVLQQTLNYINQGVSHALTWKNLKPHIQGIIQDVIFPLMCYTDADEELWQEDPYEYIRMKFDVFEDFISPTTAAQTLLFTACSKRKEVLQKTMGFCYQILTEPNADPRKKDGALHMIGSLAEILLKKKIYKDQMEYMLQNHVFPLFSSELGYMRARACWVLHYFCEVKFKSDQNLQTALELTRRCLIDDREMPVKVEAAIALQVLISNQEKAKEYITPFIRPVMQALLHIIRETENDDLTNVIQKMICEYSEEVTPIAVEMTQHLAMTFNQVIQTGPDEEGSDDKAVTAMGILNTIDTLLSVVEDHKEITQQLEGICLQVIGTVLQQHVLEFYEEIFSLAHSLTCQQVSPQMWQLLPLVFEVFQQDGFDYFTDMMPLLHNYVTVDTDTLLSDTKYLEMIYSMCKKVLTGVAGEDAECHAAKLLEVIILQCKGRGIDQCIPLFVEAALERLTREVKTSELRTMCLQVAIAALYYNPHLLLNTLENLRFPNNVEPVTNHFITQWLNDVDCFLGLHDRKMCVLGLCALIDMEQIPQVLNQVSGQILPAFILLFNGLKRAYACHAEHENDSDDDEDAEDDDETEELGSDEDDIDEDGQEYLEILAKQAGEDGDDEDWEEDDAEETALEGYSTIIDDEDNPVDEYQIFKAIFQTIQNRNPVWYQALTHGLNEEQRKQLQDIATLADQRRAAHESKMIEKHGGYKFSAPVVPSSFNFGGPAPGMN
B7: Slc44a1 (protein, UniProt Q6X893 2-653, looked up)
Choline transporter-like …: GCCSSASAAQSSKREWKPLEDRSCTDIPWLLLFVLFCIGMGFICGFSVATGAAARLVSGYDSYGNICGQRNAKLEAIPNSGLDHTHRKYVFFLDPCNLDLINRKIKSIALCVAACPRQELKTLSDVQKFAEINGSALCSYNIKPSEYTLTSKSSGFCPKLPVPASAPIPFFHRCAPVNISCYAKFAEALITFVSDNSVLHRLISGVMTSKEIILGLCLLSLVLSMILMVIIRYISRVLVWILTVLVILGSLGGTGVLWWLYAKQRRSPKEAVIPEQLQIAEDNLRALLIYAISATVFTVILFLIMLVMRKRVALTIALFHVAGKVFIHLPLLVFQPFWTFFALVLFWAYWIMTLLFLGTTGSAVQNEQGFVEYKISGPLQYMWWYHVVGLIWISEFILACQQMTVAGAVVTYYFTRDKRNLPFTPILASVNRLIRYHLGTVAKGSFIITLVKIPRMVLMYIHSQLKGKENACARCMLKSCICCLWCLEKCLSYLNQNAYTATAINSTNFCTSAKDAFVILVENALRVAAINTVGDFMLFLGKVLIVCSTGLAGIMLLNYQQDYTVWVLPLIIVCLFAFLVAHCFLSIYEMVVDVLFLCFAIDTKYNDGSPGREFYMDKVLMEFVENSRKAMKEAGKGGAADARELKPMLRKR

What follows are molecules tested on WT MEF EVs (assay: Quantitative LC-MS/MS proteomics of EVs from ISRIB-treated WT MEF cultures). Details: EV protein abundance, ISRIB-treated WT vs WT.
Type: cell-based, mouse
Set-up: key to ISRIB and DYT Parallel Direction / ISRIB and DYT Parallel Direction, Ctdsp1 / ISRIB and DYT Parallel Direction, Pcdh19 / ISRIB and DYT Parallel Direction, Tspan7 / ISRIB and DYT Parallel Direction, Myo1e / ISRIB and DYT Parallel Direction, Plpp3 / ISRIB and DYT Parallel Direction, Sh3bp4 / ISRIB and DYT Parallel Direction, Dnajc7 / ISRIB and DYT Parallel Direction, Drg1 / ISRIB and DYT Parallel Direction, Maea: YES = protein abundance effect similar to DYT/WT

Molecule | WT + ISRIB/WT Cohen's d
B1 | −1.68
B2 | 0.09
B3 | 0.14
B4 | 0.18
B5 | 0.39
B6 | 0.30
B7 | 0.80

Same assay, conditions: EV protein abundance, WT + ISRIB vs WT, direction compared with DYT/WT

Molecule | ISRIB and DYT Parallel Direction
B1 | YES

These molecules were tested on DYT-TOR1A MEF EVs (assay: Quantitative LC-MS/MS proteomics of EVs from drug-treated DYT-TOR1A MEF cultures (ritonavir, salubrinal)). Details: EV protein abundance, DYT + RTV (ritonavir) vs DYT, direction compared with DYT/WT.
Type: cell-based, mouse
Set-up: key to RTV Corrective Direction / RTV Corrective Direction, Grwd1 / RTV Corrective Direction, Srrm2 / RTV Corrective Direction, Rbm17 / RTV Corrective Direction, Dcaf8 / RTV Corrective Direction, Edil3 / RTV Corrective Direction, Timp3 / RTV Corrective Direction, Heatr3 / RTV Corrective Direction, Brd4 / RTV Corrective Direction, P3h4 / RTV Corrective Direction, Pacsin3 / RTV Corrective Direction, Naa50 / RTV Corrective Direction, Lpar6 / RTV Corrective Direction, Ndrg1 / RTV Corrective Direction, Kntc1 / RTV Corrective Direction, Cdk11b / RTV Corrective Direction, Sumo1 / RTV Corrective Direction, Lsm4 / RTV Corrective Direction, Hmga2 / RTV Corrective Direction, Cstf1 / RTV Corrective Direction, Tes / RTV Corrective Direction, Sbno1 / RTV Corrective Direction, Unc119b / RTV Corrective Direction, Cfdp1 / RTV Corrective Direction, Sec61b: YES = protein abundance effect opposite to DYT/WT

Molecule | RTV Corrective Direction
B1 | YES
B2 | YES
B3 | YES
B4 | YES
B5 | YES
B6 | YES
B7 | YES

Same assay, conditions: EV protein abundance, ritonavir (RTV)-treated DYT vs DYT

Molecule | DYT + RTV/DYT Cohen's d
B1 | 10.01
B2 | 0.24
B3 | 1.96
B4 | 1.25
B5 | 1.11
B6 | 2.25
B7 | 0.84
